Numbering of substitutions follows the chain as printed. In names and notes the source's numbering stands.
B1: PRO3312 (scFv 37-20-B03-sc09.1_(T101R, T146Q)) (scFv)
scFv: DIQMTQSPASLSASVGDRVTITCQASQSIGTYLAWYQQKPGKPPKLLIYRAFILASGVPSRFSGSGSGTDFTLTISSLQPEDFATYYCQSNFYSDSTTIGPNAFGTGTKVTVLGGGGGSGGGGSGGGGSGGGGSEVQLVESGGGLVQPGGSLRLSCAASGFSFNSDYWIYWVRQAPGKGLEWIASIYGGSSGNTQYASWAQGRFTISRDNSKNTVYLQMNSLRAEDRAVYFCARGYVDYGGATDLWGQGTLVQVSS
notes: PRO2230 variant; VH substitutions, AHo numbering; also called PRO2230 T101R-T146Q
B2: PRO2988 (scFv 37-20-B03-sc09.1_(P48A)) (scFv)
scFv: B1 scFv with P176A, R227T, Q253T
notes: PRO2230 variant; VH substitution, AHo numbering; also called PRO2230 P48A
B3: PRO2948 (scFv 37-20-B03-sc09.1_(T146R)) (scFv)
scFv: B1 scFv with R227T, Q253R
notes: PRO2230 variant; VH substitution, AHo numbering; also called PRO2230 T146R
B4: PRO2913 (scFv 37-20-B03-sc09.1_(T101S, T146Q)) (scFv)
scFv: B1 scFv with R227S
notes: PRO2230 variant; VH substitutions, AHo numbering; also called PRO2230 T101S-T146Q
B5: PRO2984 (scFv 37-20-B03-sc09.1_(L12S, V103T, L144T)) (scFv)
scFv: B1 scFv with L145S, R227T, V229T, L251T, Q253T
notes: VH substitutions, AHo numbering; also called PRO2230-L12S-V103T-L144T
B6: PRO3307 (scFv 37-20-B03-sc09.1_(L12A, T101S, L144A, T146R)) (scFv)
scFv: B1 scFv with L145A, R227S, L251A, Q253R
notes: PRO2230 variant; VH substitutions, AHo numbering; also called PRO2230 L12A-T101S-L144A-T146R
B7: PRO2951 (scFv 37-20-B03-sc09.1_(T101R)) (scFv)
scFv: B1 scFv with Q253T
notes: PRO2230 variant; VH substitution, AHo numbering; also called PRO2230 T101R
B8: PRO2915 (scFv 37-20-B03-sc09.1_(L12A, T101S, L144A, T146Q)) (scFv)
scFv: B1 scFv with L145A, R227S, L251A
notes: PRO2230 variant; VH substitutions, AHo numbering; also called PRO2230 L12A-T101S-L144A-T146Q
B9: PRO2952 (scFv 37-20-B03-sc09.1_(T101S)) (scFv)
scFv: B1 scFv with R227S, Q253T
notes: PRO2230 variant; VH substitution, AHo numbering; also called PRO2230 T101S
B10: PRO3309 (scFv 37-20-B03-sc09.1_(L12R, T101S, L144A, T146Q)) (scFv)
scFv: B1 scFv with L145R, R227S, L251A
notes: PRO2230 variant; VH substitutions, AHo numbering; also called PRO2230 L12R-T101S-L144A-T146Q
B11: PRO3311 (scFv 37-20-B03-sc09.1_(L12A, T101Q, L144A, T146Q)) (scFv)
scFv: B1 scFv with L145A, R227Q, L251A
notes: PRO2230 variant; VH substitutions, AHo numbering; also called PRO2230 L12A-T101Q-L144A-T146Q
B12: PRO2933 (scFv 37-20-B03-sc09.1_(L144K, T146E, S148K)) (scFv)
scFv: B1 scFv with R227T, L251K, Q253E, S255K
notes: PRO2230 variant; VH substitutions, AHo numbering; also called PRO2230 L144K-T146E-S148K
B13: PRO2934 (scFv 37-20-B03-sc09.1_(L144K, S148L)) (scFv)
scFv: B1 scFv with R227T, L251K, Q253T, S255L
notes: PRO2230 variant; VH substitutions, AHo numbering; also called PRO2230 L144K-S148L
B14: PRO3313 (scFv 37-20-B03-sc09.1_(T101S, T146R)) (scFv)
scFv: B1 scFv with R227S, Q253R
notes: PRO2230 variant; VH substitutions, AHo numbering; also called PRO2230 T101S-T146R
B15: PRO2985 (scFv 37-20-B03-sc09.1_(T101A)) (scFv)
scFv: B1 scFv with R227A, Q253T
notes: PRO2230 variant; VH substitution, AHo numbering; also called PRO2230 T101A
B16: PRO3308 (scFv 37-20-B03-sc09.1_(L12A, T101S, L144K, T146Q)) (scFv)
scFv: B1 scFv with L145A, R227S, L251K
notes: PRO2230 variant; VH substitutions, AHo numbering; also called PRO2230 L12A-T101S-L144K-T146Q

target: pre-existing anti-drug antibodies (ADA) present in human sera; assay: pre-existing ADA ELISA, scFv coated, human sera unspiked vs spiked

Question: Which Mean No of serum samples >30% inhibition (30% CCP) with SCP (serum samples) does the source give for B1 here?
Answer: 1

Question: What about the No of serum samples >30% inhibition (30% CCP) without SCP (serum samples) of the same binder?
Answer: 2

Question: For B2, which Mean No of serum samples >30% inhibition (30% CCP) with SCP (serum samples) is on record?
Answer: 3

Question: And the No of serum samples >30% inhibition (30% CCP) without SCP (serum samples)?
Answer: 7

Question: B3 was tested. Which Mean No of serum samples >30% inhibition (30% CCP) with SCP (serum samples) did it give?
Answer: 1

Question: And the No of serum samples >30% inhibition (30% CCP) without SCP (serum samples)?
Answer: 0

Question: B4 was tested. Which Mean No of serum samples >30% inhibition (30% CCP) with SCP (serum samples) did it give?
Answer: 3

Question: And the No of serum samples >30% inhibition (30% CCP) without SCP (serum samples)?
Answer: 2

Question: What does the source list for B5?
Answer: Mean No of serum samples >30% inhibition (30% CCP) with SCP (serum samples): 5; No of serum samples >30% inhibition (30% CCP) without SCP (serum samples): 5

Question: Which Mean No of serum samples >30% inhibition (30% CCP) with SCP (serum samples) does the source give for B6 here?
Answer: 4

Question: And the No of serum samples >30% inhibition (30% CCP) without SCP (serum samples)?
Answer: 7

Question: For B7, which Mean No of serum samples >30% inhibition (30% CCP) with SCP (serum samples) is on record?
Answer: 1

Question: What about the No of serum samples >30% inhibition (30% CCP) without SCP (serum samples) of the same binder?
Answer: 0

Question: How did the Mean No of serum samples >30% inhibition (30% CCP) with SCP (serum samples) turn out when B8 was run?
Answer: 2

Question: What about the No of serum samples >30% inhibition (30% CCP) without SCP (serum samples) of the same binder?
Answer: 1

Question: With B9 as the binder, how does the Mean No of serum samples >30% inhibition (30% CCP) with SCP (serum samples) read?
Answer: 5

Question: And the No of serum samples >30% inhibition (30% CCP) without SCP (serum samples)?
Answer: 8

Question: B10 was tested. Which Mean No of serum samples >30% inhibition (30% CCP) with SCP (serum samples) did it give?
Answer: 1

Question: And the No of serum samples >30% inhibition (30% CCP) without SCP (serum samples)?
Answer: 4

Question: With B11 as the binder, how does the Mean No of serum samples >30% inhibition (30% CCP) with SCP (serum samples) read?
Answer: 7

Question: What about the No of serum samples >30% inhibition (30% CCP) without SCP (serum samples) of the same binder?
Answer: 10

Question: What does the source list for B12?
Answer: Mean No of serum samples >30% inhibition (30% CCP) with SCP (serum samples): 1; No of serum samples >30% inhibition (30% CCP) without SCP (serum samples): 0

Question: What does the source list for B13?
Answer: Mean No of serum samples >30% inhibition (30% CCP) with SCP (serum samples): 2; No of serum samples >30% inhibition (30% CCP) without SCP (serum samples): 2

Question: What does the source list for B14?
Answer: Mean No of serum samples >30% inhibition (30% CCP) with SCP (serum samples): 1; No of serum samples >30% inhibition (30% CCP) without SCP (serum samples): 5

Question: B15 was tested. Which Mean No of serum samples >30% inhibition (30% CCP) with SCP (serum samples) did it give?
Answer: 2

Question: And the No of serum samples >30% inhibition (30% CCP) without SCP (serum samples)?
Answer: 2

Question: With B16 as the binder, how does the Mean No of serum samples >30% inhibition (30% CCP) with SCP (serum samples) read?
Answer: 2

Question: What about the No of serum samples >30% inhibition (30% CCP) without SCP (serum samples) of the same binder?
Answer: 7

target: T1, human a-PD-L1 Fc (Sino Biological, 10084-H02H, LC11NO2402) (human, UniProt Q9NZQ7 19-239); assay: SPR, PD-L1 Fc immobilised, scFv analyte, 1:1 fit
T1 construct: Bought Fc fusion immobilised on the SPR chip; Printed as 'a-PD-L1 Fc' but used as the antigen (ligand) for the anti-PD-L1 scFvs; also called Human PD-L1; not shown: Fc part
T1 sequence (Q9NZQ7 19-239 limits assumed): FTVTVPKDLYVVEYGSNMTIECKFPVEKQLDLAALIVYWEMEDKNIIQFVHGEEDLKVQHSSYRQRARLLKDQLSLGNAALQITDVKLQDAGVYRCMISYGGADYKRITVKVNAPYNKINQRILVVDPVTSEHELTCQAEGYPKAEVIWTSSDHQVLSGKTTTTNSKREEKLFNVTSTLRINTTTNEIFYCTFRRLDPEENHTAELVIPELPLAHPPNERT
Method: The mutation variants were then injected at concentrations of 10 nM, 2 nM and 0.4 nM over the ligand-immobilized and reference spots. The wild type variants were used as a control, while an empty spot was used as reference.
After each cycle with analyte, the surface was regenerated with a 3M MgCl₂ solution, thereby allowing the next analyte cycle to have only free ligand available. Binding affinity KD was globally calculated by the Bruker SPR software based on the binding association (kₒₙ) and dissociation (Koff) rate, by fitting a 1:1 Langmuir model to the curves obtained by the cycles with the three different concentrations of the analyte.

Question: For B1, which Kd is on record?
Answer: 0.041 nM

Question: What about the n-fold to wt of the same binder?
Answer: 0.8 fold

Question: How did the Kd turn out when B2 was run?
Answer: 0.034 nM

Question: What about the n-fold to wt of the same binder?
Answer: 0.7 fold

Question: Which Kd does the source give for B3 here?
Answer: 0.064 nM

Question: What about the n-fold to wt of the same binder?
Answer: 1.3 fold

Question: With B4 as the binder, how does the Kd read?
Answer: 0.058 nM

Question: And the n-fold to wt?
Answer: 1.2 fold

Question: What does the source list for B5?
Answer: Kd: 0.036 nM; n-fold to wt: 0.7 fold

Question: For B6, which Kd is on record?
Answer: 0.027 nM

Question: What about the n-fold to wt of the same binder?
Answer: 0.6 fold

Question: What does the source list for B7?
Answer: Kd: 0.042 nM; n-fold to wt: 0.9 fold

Question: With B8 as the binder, how does the Kd read?
Answer: 0.05 nM

Question: What about the n-fold to wt of the same binder?
Answer: 1 fold

Question: Which results are given for B9?
Answer: Kd: 0.036 nM; n-fold to wt: 0.7 fold

Question: Which results are given for B10?
Answer: Kd: 0.026 nM; n-fold to wt: 0.5 fold

Question: B11 was tested. Which Kd did it give?
Answer: 0.048 nM

Question: What about the n-fold to wt of the same binder?
Answer: 1 fold

Question: What does the source list for B12?
Answer: Kd: 0.045 nM; n-fold to wt: 0.9 fold

Question: For B13, which Kd is on record?
Answer: 0.018 nM

Question: What about the n-fold to wt of the same binder?
Answer: 0.4 fold

Question: Which Kd does the source give for B14 here?
Answer: 0.014 nM

Question: And the n-fold to wt?
Answer: 0.3 fold

Question: What does the source list for B15?
Answer: Kd: 0.047 nM; n-fold to wt: 1 fold

Question: With B16 as the binder, how does the Kd read?
Answer: 0.036 nM

Question: And the n-fold to wt?
Answer: 0.7 fold
